Laboratory results from PMC5814804 (Nucleic Acids Research, 2018).

B1: Thermotoga maritima TsaD (natural protein, UniProt Q9WXZ2 1-327, looked up)
chain: MRVLGIETSCDETAVAVLDDGKNVVVNFTVSQIEVHQKFGGVVPEVAARHHLKNLPILLKKAFEKVPPETVDVVAATYGPGLIGALLVGLSAAKGLAISLEKPFVGVNHVEAHVQAVFLANPDLKPPLVVLMVSGGHTQLMKVDEDYSMEVLGETLDDSAGEAFDKVARLLGLGYPGGPVIDRVAKKGDPEKYSFPRPMLDDDSYNFSFAGLKTSVLYFLQREKGYKVEDVAASFQKAVVDILVEKTFRLARNLGIRKIAFVGGVAANSMLREEVRKRAERWNYEVFFPPLELCTDNALMVAKAGYEKAKRGMFSPLSLNADPNLNV
B2: Thermotoga maritima TsaB (natural protein, UniProt Q9WZX7 1-206, looked up)
chain: MNVLALDTSQRIRIGLRKGEDLFEISYTGEKKHAEILPVVVKKLLDELDLKVKDLDVVGVGIGPGGLTGLRVGIATVVGLVSPYDIPVAPLNSFEMTAKSCPADGVVLVARRARKGYHYCAVYLKDKGLNPLKEPSVVSDEELEEITKEFSPKIVLKDDLLISPAVLVEESERLFREKKTIHYYEIEPLYLQKSIAELNWEKKKRG

Tests used:
SEC = molecular target: the molecule itself; experiment: SEC
Thermotoga maritima TsaD = molecular target: B1; experiment: native gel or EMSA

Binder | stoichiometry N (SEC) | binding result (Thermotoga maritima TsaD)
B1 | 2 | 
B2 | 2 | binds
